Laboratory results published in paper doi:10.1101/2020.09.25.312835 (bioRxiv, 2020).

Biological target: the molecule itself
Experiment: cross-linking

B1: C-terminal fragment of bovine ROS-GC1 comprising the αHD and CD (aa 814-1110) (domain or fragment, UniProt P55203 814-1110, looked up)
chain: NKGRKMNIIDSMLRMLEQYSSNLEDLIRERTEELELEKQKTDRLLTQMLPPSVAEALKMGTPVEPEYFEEVTLYFSDIVGFTTISAMSEPIEVVDLLNDLYTLFDAIIGSHDVYKVETIGDAYMVASGLPQRNGHRHAAEIANMALDILSAVGTFRMRHMPEVPVRIRIGLHSGPCVAGVVGLTMPRYCLFGDTVNTASAMESTGLPYRIHVNRSTVQILSALNEGFLTEVRGRTELKGKGAEETYWLVGRRGFNKPIPKPPDLQPGASNHGISLHEIPPDRRQKLEKARPGQFSGK
- binding result: binds
